From PMC9202514

Substrate: Nc1ncnc2c1ncn2[C@@H]1O[C@H](COP(=O)(O)OP(=O)(O)OP(=O)(O)O)[C@@H](O)[C@H]1O
Experiment: DIPP1-coupled Pi-release malachite green assay
Assay type: biochemical, Zea mays
Conditions: 25 μM InsP6, 3.5 mM MgCl2, 100 mM KCl, pH 7.2, 25 °C

B1: ZmITPK1 (Zea mays) (protein)
chain: MASDAAAEPSSGVTHPPRYVIGYALAPKKQQSFIQPSLVAQAASRGMDLVPVDASQPLAEQGPFHLLIHKLYGDDWRAQLVAFAARHPAVPIVDPPHAIDRLHNRISMLQVVSELDHAADQDSTFGIPSQVVVYDAAALADFGLLAALRFPLIAKPLVADGTAKSHKMSLVYHREGLGKLRPPLVLQEFVNHGGVIFKVYVVGGHVTCVKRRSLPDVSPEDDASAQGSVSFSQVSNLPTERTAEEYYGEKSLEDAVVPPAAFINQIAGGLRRALGLQLFNFDMIRDVRAGDRYLVIDINYFPGYAKMPGYETVLTDFFWEMVHKDGVGNQQEEKGANHVVVK
Km: 364 µM
